Consider 19 molecules from patent US20240101708A1 (Genentech, published 2024).

Usually Kd stands for the concentration at which binding is half-saturated.

The chains are these.
B1: RNF43-180 (antibody, V domains shown)
VH: EAQLVESGGGLVRPGRSLKLTCAASGFTFSHYDMAWVRQAPARGLEWVASIGPGGGLTHYRDSVKGRFTVSRDHAESSLYLQMDSLRSEDTATYYCARHYGWSYFDYWGQGVMVTVSS
VL: DIQMTQSPSFLSASLGDSITITCHASQNIKGWLAWYQQKSGNAPELLIYTASGLRSGVPSRFSGSGSGTDYILTISNLQPEDFATYYCQHYQSFPNTFGAGTKLELR
notes: Rat clone; VH/VL only
B2: RNF43-156 (antibody, V domains shown)
VH: EVQLKESGPGLVQPSQTLSLTCTVSGFSLTDYSVYWVRQPPGKGLEWMGVMWRGGTTAYNSALKSRLSISRDTSKSQVFLKMNSLQTEDTAIYYCTRGGKYDGTYYYGWYFDFWGPGTMVTVSS
VL: DVVLTQSPATLSVTPGERISLSCRASESVDTYLYWYQQKPNESPRLLIKYASQSISGIPSRFSGSGSGTDFTLSINGVELEDLSIYYCQQGNSLPLTFGSGTKLEIK
notes: Rat clone; VH/VL only
B3: RNF43-224 (antibody, V domains shown)
VH: EVQLKESGPGLVQPSQTLSLTCTVSGFSLSDYSVHWVRQPPGKGLEWMGVMWSGGTTAYNSALKSRLSISRDTSKNQVLLEMNSLQTEDTAIYYCTRGGKYDGTYYYGWYFDFWGPGTMVTVSS
VL: DVVLTQSPATLSVTPGERISLSCRASESVDTYLSWYQQKPNESPRLLIKYASQSISGIPSRFSGSGSGTDFTLSINGVELEDLSIYYCQQGNSLPLTFGSGTKLEIK
notes: Rat clone; VH/VL only
B4: RNF43-221 (antibody, V domains shown)
VH: EVQLVESGGGLVQPGRSLKLSCTASGFTLSDYAMAWVRQAPEKGLEWVATISYDGSRTYYGGSVKGRFTISRDNAENILYLQMDSLRSADTATYYCANSATPHYWGQGVMVTVSS
VL: DVVMTQTPASLSLAIGQPASISCKSSQSLLDTSRKTFLNWILQRPGQSPKRLIYQVSKLYSEVPDRFSGSGSETEFTLKISRVEAEDLGVYYCWQGTHFPDTFGAGTKLELK
notes: Rat clone; VH/VL only
B5: RNF43-126 (antibody, V domains shown)
VH: EVQLQESGPGLVKPSQSLSLTCSVTGFSITSSHRWNWIRKFPGNKLEWMGYINSAGSTNYNPSLKSRISITRDTSKNQFFLQVNSVTTEDTATYYCTRLGLQYRDFDYWGQGVMVTVSS
VL: DIQMTQSPASLSASLGETISIECRASDDIYSNLAWYQQKSGKSPQLLIYAANRLKDGVPSRFSGSGSGTQYSLKISGMQTEDEGDYFCLQASKFPLTFGSGTKLEIK
notes: Rat clone; VH/VL only
B6: RNF43-217 (antibody, V domains shown)
VH: EVQLQESGPGLVKPSQSLSLTCSVTGFSITSSHRWNWIRKFPGNKLEWMGYINSAGSTNYNPSLKSRVSITRDASKNQFFLQVNSVTTEDTATYYCTRLGLQYRDFDYWGQGVMVTVSS
VL: DIQMTQSPASLSASLGETISIECRASDDIYSNLAWYQQKSGKSPQLLIYAANRLKDGVPSRFSGSGSGTQYSLKISGMETEDEGDYFCLQASKFPLTFGSGTKLEIK
notes: Rat clone; VH/VL only
B7: RNF43-129 (antibody, V domains shown)
VH: EVQLVESGGGLVQPGRSMKLSCAASGFTFSNYDMAWVRQAPKKGLEWVASITYDVSSTYYRDSVKGRFTISRDNAKSTLYLQMDSLRSEDTATYYCTTLDRAGYYYDGYGFYWFANWGQGTLVTVSS
VL: DIQMTQSPSSMSVSLGDTVTITCRASQDVKIYVNWFQQKPGKSPRQMIYRATNLADGVSSRFSGSRSGSDYLFTISSLESEDVADYHCLQYDEYPPTFGSGTKVEIK
notes: Rat clone; VH/VL only
B8: RNF43-176 (antibody, V domains shown)
VH: QVQLKESGPGLVQPSQTLSLTCTVSGFSLTSYHVSWVRQPPGKGLEWMGVIWTGGSTAYNSLLKSRLSISRDISKSQVFLKMNSLQTEDTATYYCASQYYGYTSYFDYWGQGVMVTVSS
VL: DIQMTQSPVSLSASPEEIVTITCQASQDIDNWLTWYQQKPGKSPQLLIYSATSLADGIPSRFSGSRSGTQYSLKISRLQIEDTGIYYCLQRYGNPWTFGGGTKLELK
notes: Rat clone; VH/VL only
B9: RNF43-200 (antibody, V domains shown)
VH: QVQLKESGPGLVQPSQTLSLTCTVSGFSLTSYHISWVRQPPGKGLEWMGVIWTGGSTAYNSLLKSRLSISRDISKSQVFLKMNSLQAEDTATYYCAGSYYGYTSYFDYWGQGVMVTVSS
VL: DIQMTQSPASLSASPEEIVTITCQASQDIDNWLAWYQQKPGKSPQLLIYSATRLADGIPSRFSGSRSGIQYSLKINRLQVEDTGIYYCLQRFGNPWTFGGGTKLELK
notes: Rat clone; VH/VL only
B10: RNF43-168 (antibody, V domains shown)
VH: QVQLKESGPGLVQPSQTLSLTCTVSGFSLNRYHVSWVRQPPGKGLEWMGVVWTGGSTAYNSLLKSRLSISRDISKSQVFLKMISLQTEDTATYYCVSQYYGYTSYFDYWGQGVMVTVSS
VL: DIQMTQSPASLSASPEEIVTVTCQASQDIDNWLTWYQQKPGKSPQLLIYSATSLADGIPSRFSGSRSGTQYSLKIDRLQVEDTGIYYCLQRYGNPWTFGGGTKLELK
notes: Rat clone; VH/VL only
B11: RNF43-206 (antibody, V domains shown)
VH: QVQLKESGPGLVQPSQTLSLTCTVSGFSLTSFHISWVRQPPGKGLEWMGIIWTGGSTAYNSLLKSRLSISRDISKSQVFLKMNSLQTEDTATYYCAGSYHGYTSYFDYWGQGVMVTVSS
VL: DIQMTQSPASLSASPEEIVTITCQASQDIDNWLAWYQQQPGKSPQLLIYSATSLADGIPSRFSGSRSGTQYSLKINRLQVEDTGIYYCLQRYSNPWTFGGGTKLELK
notes: Rat clone; VH/VL only
B12: RNF43-106 (antibody, V domains shown)
VH: QIQLGQSGPELTKPGESVKISCKASGYTFSDYPIHWVKQAPGKGLKWMGWINTYTGKPTFADDFKGRFVFSLEASASTANLQISNLKNEDTATYFCALGPISTVFYAMDAWGQGTSVTVSS
VL: DIQMTQSPSFLSASVGDRVTINCKASQNINKYLNWYQQKLGEAPKRLIYNTNNLQTGIPSRFSGSGSGTDYTLTISSLQPEDFATYFCLQHNSFPYTFGAGTKLELK
notes: Rat clone; VH/VL only
B13: RNF43-123 (antibody, V domains shown)
VH: QIQLVQSGPELKKPGESVKISCKASGYTFTDYPMHWVKQAPGKGLKWMGWINTYTGKPTYADDFKGRFVFSLEASANTANLQISNLKNDDTATYFCALGPISTVFYAVDAWGQGTSVTVSS
VL: DIQMTQSPSFLSASVGDRVTINCKASQNINKYLNWYQQKVGEAPKRLMYNTNNLQTGIPSRFSGSGSGTDYTLTISSLQPEDFATYFCLQHNSFPYTFGPGTELELK
notes: Rat clone; VH/VL only
B14: RNF43-152 (antibody, V domains shown)
VH: QVTLKESGPGILQPSQTLSLTCTFSGSSLSTYGMGVGWIRQPSGKGLEWLANIWWDDDKYYNPSLKNRLTISKDTSNNQSFLKIANVDTADTATYYCARIDGTYNYFDYWGQGVMVTVSS
VL: DVVLTQTPSRLSATIGQSVSISCRSSQSLLDSYGNTYLSWFLQRPGQSPQRLIFLVSNLGSGVPNRVSGSGSGTDFTLKISGVEAEDLGVYYCMQTTHDPLTFGSGTKLEIK
notes: Rat clone; VH/VL only
B15: RNF43-170 (antibody, V domains shown)
VH: EVQLVESGGGLVPPGRSLKLSCVASGFTFNDYYMAWVRQAPTKGLEWVASISYEGRRTYYGDSVKGRFTISRDNAKSTLYLQMNSLRSDDTATYYCATHSNYIFDYWGQGVMVTVSS
VL: DIRMTQSPASLSASLGETVNIECLASEDIYSDFAWFQQKPGQSPLLLIYNGNSLQNGVPSRFSGSGSGTQYSLKINSLQSEDVATYFCQQYNNYPPTFGGGTKLELK
notes: Rat clone; VH/VL only
B16: RNF43-179 (antibody, V domains shown)
VH: EVQLVESGGGLVQPGRSLKLSCVASGFTFNDYYMAWVRQAPKKGLEWVASINYEGSRTYYGDSVKGRFTISRDNAKSTLYLQMNSLRSEDTATYYCATHSNYIFDNWGQGVMVTVSS
VL: DIRMTQSPASLSASLGETVNIECLASEDIYSDFAWFQQKPGQSPLLLIYNGNNLQNGVPSRFSGSGSGTQYSLKINSLQSEDVATYFCQQYNNYPPTFGGGTKLELK
notes: Rat clone; VH/VL only
B17: RNF43-117 (antibody, V domains shown)
VH: QVSLKESGPGMLQPSQTLSLTCTFSEFSLSTYGLGVGWIRQPSGKGLEWLANIWWDDDKYYNPSLKNRLTISKDTSNNQAFLKITNVDTADTATYYCARIDGRWHYFDYWGQGDRVIVSS
VL: DIVLTQTPSILSATIGQSVSISCRSTQSLLDSDGNTYLYWFLQRPGQSPQRLIYLVSNLGSGVPNRFSGSGSGTDFTLKISGVEAEDLGFYYCMQGAHTPLTFGSGTKLEIK
notes: Rat clone; VH/VL only
B18: RNF43-201 (antibody, V domains shown)
VH: QVTLKEYGPGILQPSQTLSLTCTFSGFSLRTYGMGVGWIRQPSGKGLEWLTNIWWDDDKYYNPSLKNRLTISKDTSNNQAFLKITNVDTEDSATYYCARIDGTFNYFDYWGQGVMVTVSS
VL: DVVLTQTPSRLSATIGQSVSISCRSSQSLLDSDGNTYLYWFLQRPGQSPQRLIYLVSNLGSGVPNRVSGSGSGTDFTLKISGVEAEDLGIYYCLQATHAPLTFGSGTKLEIK
notes: Rat clone; VH/VL only
B19: RNF43-107 (antibody, V domains shown)
VH: EVQPVESGGGLVQPGRSLKLSCPASGFTFSNYDMAWVRQAPTKGLEWVASISPSGGRTYYRDSVKGRFTISRDNSKSTLYLQMDSLRSEDTATFYCATHRYYSYFDFWGQGVMVTVSS
VL: DIQMTQSPASLSASLGETISIDCRTSEDIYNNLAWYQQKSGRSPQLLISATNRLQDGVPSRFSGSGSGTQYSLKISGMQPEDEGVYFCLQGSKYPYTFGTGTKLELK
notes: Rat clone; VH/VL only

The target of the test is T1, recombinant human RNF43 extracellular domain (human, UniProt Q68DV7 24-197).
T1 construct: extracellular domain; also called huRNF43; human RNF43 ECD
T1 sequence (looked up): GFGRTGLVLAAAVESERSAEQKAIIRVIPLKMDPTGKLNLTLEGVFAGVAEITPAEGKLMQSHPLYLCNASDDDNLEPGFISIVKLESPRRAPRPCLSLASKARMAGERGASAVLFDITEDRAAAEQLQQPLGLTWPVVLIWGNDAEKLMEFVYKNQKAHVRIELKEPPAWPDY
Put plainly: SPR Biacore 8K; antibody captured on Protein A; RNF43 ECD analyte; 25 C. On the procedure: Antibodies were screened for binding to recombinant human RNF43 and ZNRF3 ECDs using a Biacore® 8 k instrument (GE Life Sciences). Briefly, antibodies diluted to 1 μg/ml in 1×HBSP buffer (Cytiva, BR100368) were captured on a Sensor Chip Protein A (GE Life Sciences) using a flow rate of 10 μl/minute and a contact time of 60 seconds. Binding of recombinant human RNF43 and ZNRF3 extracellular domain to the captured antibodies was analyzed at 25° C. using a single cycle kinetics method with a flow rate of 30 μl/minute, a contact time of 180 seconds and a dissociation time of 600 seconds. The concentration of recombinant human RNF43 and ZNRF3 extracellular domain in the single cycle kinetics were 0, 0.8, 4, 20, and 100 nM. Between cycles, the chip was regenerated using 10 mM Glycine HCl pH 1.5 injected for 30 seconds at 30 μl/minute. Data were evaluated using Biacore 8K Evaluation software (GE Life Sciences). Kinetic constants were obtained using a 1:1 binding model with the parameter RI set to zero. Cell surface ligase antibodies with sub-nanomolar affinities may provide advantages in certain instances, for example, in the degradation efficiency which is correlated with the durability of the ternary complex as shown in FIG. 5D.
As for B1, the Kd stood at 2.81 nM. In the case of B2, the Kd turned out to be 0.209 nM. The figure for B3 is 0.584 nM; for B4 it is 51.6 nM. On to B5, for which the Kd came out at 1.75 nM. The figure for B6 is 1.49 nM.

Consider B7, for which the dissociation constant Kd is 1.17 nM. The figure for B8 is 5.71 nM; for B9 it is 0.539 nM; for B10 it is 1.36 nM. The figure for B11 is 0.58 nM; for B12 it is 15.6 nM. On to B13, for which the Kd came out at 13.4 nM. The figure for B14 is 17.8 nM; for B15 it is 76 nM. The figure for B16 is 31.7 nM; for B17 it is 19.8 nM; for B18 it is 9.9 nM. Take B19: the Kd was 0.341 nM.
